The source of these data is patent US20180021429A1, “ANTICANCER AGENTS OR ANTIMETASTATIC AGENTS USING FSTL1 AND COMBINATION DRUG THEREOF” (PHARMA FOODS INTERNATIONAL CO., LTD., priority 2015, published 2018).

Assay [1] deals with mouse bone marrow cells. Kind of assay: Ability of FSTL1-induced MSCs to differentiate into adipocytes (Examples 14, 16). Format: cell-based. The note with it: Example 16; antibody 20.0-2.5 μg/ml; FIG. 104B. As for the experimental part: The antibody clone (#6-55, #7, #10, #13, or #22) was evaluated for its activity by the same testing method as in Example 13. #6-55 was set as a positive control for activity. […] Mouse bone marrow cells were supplemented with FSTL1 and the predetermined concentration of each antibody and cultured for 8 days. 5×10^4 cells/well were separated from each culture system and evaluated for the ability to differentiate into adipocytes using an adipocyte differentiation reagent included in “Mesenchymal Stem Cell Functional Identification Kit (R&D Systems, Inc., Cat. No. SC010)”. For the evaluation method, the cells were supplemented with the adipocyte differentiation reagent and cultured for 8 days. Then, adipocytes per culture system were counted under a microscope for evaluation. […]
In the same way as in Example 15, mouse bone marrow cells were supplemented with FSTL1 and the predetermined concentration of each antibody and cultured for 8 days. 5×10^4 cells/well were separated from each culture system and evaluated for the ability to differentiate into adipocytes using an adipocyte differentiation reagent included in “Mesenchymal Stem Cell Functional Identification Kit (R&D Systems, Inc., Cat. No. SC010)”. […] Then, adipocytes per culture system were counted under a microscope for evaluation (FIG. 104B). […]

The test system of assay [2] is mouse colorectal cancer CT26 cells. The assay is described as follows: In vivo, mouse colorectal cancer CT26 cell-transplanted model (Example 20). The note with it: intraperitoneal 10 mg/kg on days 4 and 7. As for the experimental part: (§1) Procedures and methods of the experiment were basically performed under substantially the same conditions as in the bone metastasis model experiments of Examples 17 to 19 except that bone metastasis was not evaluated. Specifically, drug efficacy evaluation was conducted using mouse tumor models other than Snail-positive tumor bone metastasis models. The drug efficacy of the anti-FSTL1 antibody was evaluated using cancer-bearing models of BALB/c mice different in strain from the C57BL/6 mice used in the preceding tests. The test was conducted by changing only the amount of tumor implanted, antibody administration timing, and assay timing. • Day 0: transplantation of tumor cells (5×10^5 cells subcutaneously & 5×10^5 cells intravenously) Days 4 and 7: intraperitoneal administration of the antibody (10 mg/kg) • Day 14: drug efficacy evaluation (subcutaneous tumor growth (FIG. 44A) and lung metastasis (FIG. 44B))
For lung metastasis, the number of metastatic nodules in the lung was macroscopically counted. The tumor volumes of the mice were measured 7, 11, and 14 days after tumor implantation.
as §1, with “intravenously) •” for “intravenously)”, “76A)” for “44A)”, “76B))” for “44B))”

In assay [3] the test system is human pancreatic cancer cell line Panc1. The assay is described as follows: Action on Panc1 under FSTL1 stimulation (Example 26). Format: cell-based. The note with it: Panc1 stimulated with FSTL1 for 3 days, antibody 5 μg/ml; FIG. 114B. The source says:
Specifically, the influence of the anti-FSTL1 antibody on proliferative capacity and invasive capacity was studied using various human tumor cells, regardless of the presence or absence of the expression of Snail or FSTL1. […] After culture for 3 days, the number of cells per culture system was counted to evaluate the proliferative capacity of the cells. […] Then, the number of cells that permeated the membranes was counted under a microscope to evaluate the invasive capacity of the cells.
Next, in order to examine how surrounding tumor cells were changed in a cancer microenvironment by receiving FSTL1 produced by Snail/FSTL1-expressing cells, and how the anti-FSTL1 antibody acts thereon, a human pancreatic cancer cell line Panc1 confirmed to express Snail or FSTL1 only slightly was stimulated with FSTL1 for 3 days. The anti-FSTL1 antibody (#6-55, 5 μg/ml) or a control antibody (aHema, 5 μg/ml) was added to this culture system, and subsequent change in cell function was analyzed in the same way as in the preceding paragraph. […]

Assay [4] addresses T1, FSTL1 (Homo sapiens, UniProt Q12841).
T1 sequence (Q12841 21-308): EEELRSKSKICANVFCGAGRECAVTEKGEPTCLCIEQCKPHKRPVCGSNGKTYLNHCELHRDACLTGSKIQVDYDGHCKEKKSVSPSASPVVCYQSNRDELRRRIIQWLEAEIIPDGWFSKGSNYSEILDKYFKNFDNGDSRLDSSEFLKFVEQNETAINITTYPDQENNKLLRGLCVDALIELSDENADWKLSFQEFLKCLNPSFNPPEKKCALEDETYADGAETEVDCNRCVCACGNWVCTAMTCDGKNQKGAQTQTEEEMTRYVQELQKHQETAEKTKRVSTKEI
Kind of assay: Action of anti-FSTL1 antibody on Panc1 under FSTL1 stimulation. The format is cell-based. Further details: purchased R&D Systems, Inc. 1694-FN-050. The note with it: Panc1 stimulated with FSTL1 for 3 days; antibody 5 μg/ml. As for the experimental part:
Next, in order to examine how surrounding tumor cells were changed in a cancer microenvironment by receiving FSTL1 produced by Snail/FSTL1-expressing cells, and how the anti-FSTL1 antibody acts thereon, a human pancreatic cancer cell line Panc1 confirmed to express Snail or FSTL1 only slightly was stimulated with FSTL1 for 3 days. The anti-FSTL1 antibody (#6-55, 5 μg/ml) or a control antibody (aHema, 5 μg/ml) was added to this culture system, and subsequent change in cell function was analyzed in the same way as in the preceding paragraph. […] The paper also reports that FSTL1 enhances invasive capacity.

B1: #6-55: chicken-mouse chimeric anti-FSTL1 antibody clone; variable regions SEQ ID NO: 783 (light), 785 (heavy) (antibody, V domains shown)
VH: AVTLDESGGGLQTPGGALSLVCKGSGFTFTSVTMQWVRQAPGKGLEWVASVCSGSSTYYAPAVKGRATISRDNGQSTVRLQLSNLRPEDTGTYYCAKIAGRARWSCTSAAYNIDAWGHGTEVIVSS
VL: ASTQPSSVSAIPGETVKITCSGGGNNYGWYQQRSPGSAPVTVIYYNDNRPSNIPSRFSGSTSGSTSTLTITGVQADDEAIYYCGSWDSNTDSGIFGAGTTLTVL
modifications: mouse constant regions
Turning to B1, the “cells differentiating into adipocytes” value in assay [1] is given as “decreased in number by the addition of #6-55 in a dose-dependent manner”. In addition, the “growth of CT26 subcutaneous tumor” value in assay [2] (BALB/c mice) is on record as “very strongly suppressed”. Further, in assay [2] (BALB/c mice, day 14), the “lung metastasis of CT26 tumor” value is recorded as “very strongly suppressed”. Further, in assay [2] (n=5), the “mice in which solid tumor disappeared” value is recorded as “three out of the five mice”. Besides, in assay [3], the cell growth entry is given as “reduced” and the “enhancement of invasive capacity by FSTL1” value is on record as “canceled”. In addition, in assay [4], the cell growth result is reported as “the cell growth was reduced” and the “invasive capacity enhanced by FSTL1” value is reported as “the action thereof is canceled”.
